The test system of this data set is T1, CC1=CC(=O)CC(C)(C)[C@@]1(O)/C=C/C(C)=C\C(=O)O[C@@H]1O[C@H](CO)[C@@H](O)[C@H](O)[C@H]1O.
T1 construct: recombinant from E. coli, IMAC purified; N-terminal thioredoxin and His6 tags cut off with enterokinase
The experiment in a line: glucose release by peroxidase/glucose oxidase assay, Michaelis-Menten fit. It counts as biochemical, Oryza sativa. As to conditions: 50 mM sodium acetate pH 5, 30 °C. The source says: glucose release by peroxidase/glucose oxidase assay, Michaelis-Menten fit on Os4BGlu13

Here are results for 1 substance from paper PMC8303963, “Action of Multiple Rice β-Glucosidases on Abscisic Acid Glucose Ester” (International Journal of Molecular Sciences, 2021).

A word on the Km: it is the substrate concentration at which the rate is half of its maximum. The kcat is the maximal rate divided by the concentration of active sites. The kcat/Km is the turnover number divided by the Michaelis constant.

Os4BGlu13 (Oryza sativa Japonica Group), sequence (chain, as listed by the source): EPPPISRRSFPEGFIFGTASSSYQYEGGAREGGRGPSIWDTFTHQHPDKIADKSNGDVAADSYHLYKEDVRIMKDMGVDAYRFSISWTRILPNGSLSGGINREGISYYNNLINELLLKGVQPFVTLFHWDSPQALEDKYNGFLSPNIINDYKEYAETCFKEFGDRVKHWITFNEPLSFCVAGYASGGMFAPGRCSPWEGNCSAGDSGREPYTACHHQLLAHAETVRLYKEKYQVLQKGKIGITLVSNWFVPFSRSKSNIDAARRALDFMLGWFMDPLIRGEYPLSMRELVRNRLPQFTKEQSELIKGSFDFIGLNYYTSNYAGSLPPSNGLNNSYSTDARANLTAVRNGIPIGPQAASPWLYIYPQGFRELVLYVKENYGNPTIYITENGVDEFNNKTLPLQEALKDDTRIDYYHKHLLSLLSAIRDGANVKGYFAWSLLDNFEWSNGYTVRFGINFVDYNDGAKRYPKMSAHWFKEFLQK

On to Os4BGlu13 (Oryza sativa Japonica Group), for which the Michaelis constant (Km) is 1660 ± 90 µM, the kcat is 20.6 ± 0.5 s⁻¹ and the catalytic efficiency (kcat/Km) was found to be 12400 M⁻¹ s⁻¹.
